Test system: AncSZ
Test: phosphorylation enrichment, bacterial display (enrichment ratio); higher = better substrate or ligand; peptides without Tyr show the background
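Note: 11-residue human phosphosite peptides and single-mutation variants displayed on the E. coli surface, counted by deep sequencing, each peptide's frequency after selection divided by its frequency in the unselected input library; frequency after pTyr selection over input frequency; kinase dosed for 20-30% of maximal phosphorylation in three min.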

Going from HFPFQYHRQLF [F12_Y53_YF] to TFGNLYGSRKQ [YIPF7_Y59_A54T_YF], the phosphorylation enrichment falls from 0.924 to 0.629.

Going from EDGRLYAVKRS [PKMYT1_Y136] to GNEEAYGSSHI [FAM171B_Y522_R524S], the phosphorylation enrichment rises from 0.753 to 0.763.

Compared with EFGEVYKGMLK [EPHA2_Y628], RILENYGADID [DNAH5_Y596_L591R] is higher in phosphorylation enrichment: 0.503 for the first, 1.17 for the second.

Going from IVKAYYVHARA [AIPL1_Y268_R270H] to DGNTRYSTFSE [TKTL1_Y318_D315N], the phosphorylation enrichment falls from 0.857 to 0.789.

Going from FTRNFYVQAVL [CYBA_Y88_R90Q_YF] to IPGRFYETGSI [PAX2_Y73_L69P_YF], the phosphorylation enrichment falls from 0.993 to 0.733.

First: QGLMPYGQPRP [SRRT_Y798]
Second: NNFGNYNNQSS [HNRNPA1_Y318_D314N]
The phosphorylation enrichment of the first is higher: 0.853 for the first, 0.564 for the second.

Compared with IVEELYAIPPD [PEAK1_Y797_S792I], QGFDTYFGFLL [ARSB_Y165_R160Q_YF] is lower in phosphorylation enrichment: 3.84 for the first, 3.29 for the second.

Going from ESMLRYEVYGG [STOX1_Y607] to LTEHGYSFTTT [ACTB_Y198_R196H], the phosphorylation enrichment rises from 1.29 to 2.11.

Target: EPHB1 (UniProt P54762)
Sequence (P54762 whole entry, looked up): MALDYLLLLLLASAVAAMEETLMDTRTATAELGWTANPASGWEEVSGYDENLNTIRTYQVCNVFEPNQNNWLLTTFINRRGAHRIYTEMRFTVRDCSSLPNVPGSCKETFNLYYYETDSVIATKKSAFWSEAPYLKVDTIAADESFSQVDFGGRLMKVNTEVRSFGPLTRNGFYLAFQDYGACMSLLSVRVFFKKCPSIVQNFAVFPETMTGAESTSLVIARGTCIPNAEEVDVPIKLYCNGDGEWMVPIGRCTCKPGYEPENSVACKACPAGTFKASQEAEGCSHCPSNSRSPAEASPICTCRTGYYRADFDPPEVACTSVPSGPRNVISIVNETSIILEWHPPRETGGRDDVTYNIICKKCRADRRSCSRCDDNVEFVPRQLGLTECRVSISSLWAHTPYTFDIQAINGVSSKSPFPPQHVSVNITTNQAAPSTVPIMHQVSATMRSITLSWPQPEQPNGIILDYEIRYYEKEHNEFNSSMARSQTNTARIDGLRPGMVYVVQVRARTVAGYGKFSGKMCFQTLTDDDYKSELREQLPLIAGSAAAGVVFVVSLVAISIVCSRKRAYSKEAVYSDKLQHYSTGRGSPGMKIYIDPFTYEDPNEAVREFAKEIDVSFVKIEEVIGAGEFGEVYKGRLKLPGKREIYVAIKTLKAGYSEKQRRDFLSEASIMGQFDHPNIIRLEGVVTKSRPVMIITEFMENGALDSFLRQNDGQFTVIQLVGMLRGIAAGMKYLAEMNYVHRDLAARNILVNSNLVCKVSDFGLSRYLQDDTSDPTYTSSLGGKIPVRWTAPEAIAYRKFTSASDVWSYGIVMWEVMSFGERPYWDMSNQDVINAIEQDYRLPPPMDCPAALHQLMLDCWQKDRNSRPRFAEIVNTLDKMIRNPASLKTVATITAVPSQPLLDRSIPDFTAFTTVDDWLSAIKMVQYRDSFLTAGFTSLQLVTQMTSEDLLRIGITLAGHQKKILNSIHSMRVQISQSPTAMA
Test: as above

Going from HFPFQYHRQLF [F12_Y53_YF] to TFGNLYGSRKQ [YIPF7_Y59_A54T_YF], the phosphorylation enrichment falls from 0.618 to 0.366.

First: EDGRLYAVKRS [PKMYT1_Y136]
Second: GNEEAYGSSHI [FAM171B_Y522_R524S]
The phosphorylation enrichment of the first is lower: 0.417 for the first, 0.465 for the second.

First: EFGEVYKGMLK [EPHA2_Y628]
Second: RILENYGADID [DNAH5_Y596_L591R]
The phosphorylation enrichment of the first is lower: 0.343 for the first, 0.717 for the second.

Going from IVKAYYVHARA [AIPL1_Y268_R270H] to DGNTRYSTFSE [TKTL1_Y318_D315N], the phosphorylation enrichment falls from 0.567 to 0.473.

Going from FTRNFYVQAVL [CYBA_Y88_R90Q_YF] to IPGRFYETGSI [PAX2_Y73_L69P_YF], the phosphorylation enrichment falls from 0.81 to 0.441.

First: QGLMPYGQPRP [SRRT_Y798]
Second: NNFGNYNNQSS [HNRNPA1_Y318_D314N]
The phosphorylation enrichment of the first is higher: 0.568 for the first, 0.366 for the second.

Going from IVEELYAIPPD [PEAK1_Y797_S792I] to QGFDTYFGFLL [ARSB_Y165_R160Q_YF], the phosphorylation enrichment rises from 4.29 to 4.39.

Compared with ESMLRYEVYGG [STOX1_Y607], LTEHGYSFTTT [ACTB_Y198_R196H] is higher in phosphorylation enrichment: 0.758 for the first, 0.862 for the second.

Target: EPHB2 (UniProt P29323)
Sequence (P29323 whole entry, looked up): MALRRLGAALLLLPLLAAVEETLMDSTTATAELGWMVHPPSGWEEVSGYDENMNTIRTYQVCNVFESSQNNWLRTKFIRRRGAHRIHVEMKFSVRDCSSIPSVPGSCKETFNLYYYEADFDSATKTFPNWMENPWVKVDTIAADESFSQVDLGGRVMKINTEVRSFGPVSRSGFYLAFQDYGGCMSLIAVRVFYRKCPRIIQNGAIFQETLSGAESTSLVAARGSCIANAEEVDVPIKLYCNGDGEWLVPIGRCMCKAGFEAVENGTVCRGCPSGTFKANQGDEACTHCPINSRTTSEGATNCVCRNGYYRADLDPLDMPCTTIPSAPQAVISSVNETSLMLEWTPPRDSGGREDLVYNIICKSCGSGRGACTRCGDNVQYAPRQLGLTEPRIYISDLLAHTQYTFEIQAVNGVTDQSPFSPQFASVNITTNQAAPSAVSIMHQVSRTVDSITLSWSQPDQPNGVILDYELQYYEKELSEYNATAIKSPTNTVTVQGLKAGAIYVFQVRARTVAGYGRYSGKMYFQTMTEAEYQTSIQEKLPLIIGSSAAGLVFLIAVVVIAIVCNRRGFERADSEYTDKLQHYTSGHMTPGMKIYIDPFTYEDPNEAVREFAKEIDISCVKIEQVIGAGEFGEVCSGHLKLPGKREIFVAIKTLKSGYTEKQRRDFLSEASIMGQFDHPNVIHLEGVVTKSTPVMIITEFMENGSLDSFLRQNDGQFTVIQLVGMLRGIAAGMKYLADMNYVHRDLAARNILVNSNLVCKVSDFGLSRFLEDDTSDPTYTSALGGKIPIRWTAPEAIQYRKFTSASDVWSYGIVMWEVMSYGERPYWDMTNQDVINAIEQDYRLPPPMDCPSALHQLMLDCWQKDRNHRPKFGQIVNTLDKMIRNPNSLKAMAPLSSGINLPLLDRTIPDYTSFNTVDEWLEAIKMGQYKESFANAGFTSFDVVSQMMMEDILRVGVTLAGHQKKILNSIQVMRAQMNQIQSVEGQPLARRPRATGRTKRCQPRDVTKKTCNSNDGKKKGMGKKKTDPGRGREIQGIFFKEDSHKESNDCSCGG
Test: as above

Compared with HFPFQYHRQLF [F12_Y53_YF], TFGNLYGSRKQ [YIPF7_Y59_A54T_YF] is lower in phosphorylation enrichment: 0.585 for the first, 0.398 for the second.

Compared with EDGRLYAVKRS [PKMYT1_Y136], GNEEAYGSSHI [FAM171B_Y522_R524S] is higher in phosphorylation enrichment: 0.496 for the first, 0.525 for the second.

Going from EFGEVYKGMLK [EPHA2_Y628] to RILENYGADID [DNAH5_Y596_L591R], the phosphorylation enrichment rises from 0.441 to 0.719.

First: IVKAYYVHARA [AIPL1_Y268_R270H]
Second: DGNTRYSTFSE [TKTL1_Y318_D315N]
The phosphorylation enrichment of the first is higher: 0.533 for the first, 0.48 for the second.

Going from FTRNFYVQAVL [CYBA_Y88_R90Q_YF] to IPGRFYETGSI [PAX2_Y73_L69P_YF], the phosphorylation enrichment rises from 0.57 to 0.858.

Going from QGLMPYGQPRP [SRRT_Y798] to NNFGNYNNQSS [HNRNPA1_Y318_D314N], the phosphorylation enrichment falls from 0.513 to 0.393.

Going from IVEELYAIPPD [PEAK1_Y797_S792I] to QGFDTYFGFLL [ARSB_Y165_R160Q_YF], the phosphorylation enrichment falls from 13.3 to 7.17.

First: ESMLRYEVYGG [STOX1_Y607]
Second: LTEHGYSFTTT [ACTB_Y198_R196H]
The phosphorylation enrichment of the first is higher: 0.685 for the first, 0.533 for the second.

Target: FGFR1 (UniProt P11362)
Sequence (P11362 whole entry, looked up): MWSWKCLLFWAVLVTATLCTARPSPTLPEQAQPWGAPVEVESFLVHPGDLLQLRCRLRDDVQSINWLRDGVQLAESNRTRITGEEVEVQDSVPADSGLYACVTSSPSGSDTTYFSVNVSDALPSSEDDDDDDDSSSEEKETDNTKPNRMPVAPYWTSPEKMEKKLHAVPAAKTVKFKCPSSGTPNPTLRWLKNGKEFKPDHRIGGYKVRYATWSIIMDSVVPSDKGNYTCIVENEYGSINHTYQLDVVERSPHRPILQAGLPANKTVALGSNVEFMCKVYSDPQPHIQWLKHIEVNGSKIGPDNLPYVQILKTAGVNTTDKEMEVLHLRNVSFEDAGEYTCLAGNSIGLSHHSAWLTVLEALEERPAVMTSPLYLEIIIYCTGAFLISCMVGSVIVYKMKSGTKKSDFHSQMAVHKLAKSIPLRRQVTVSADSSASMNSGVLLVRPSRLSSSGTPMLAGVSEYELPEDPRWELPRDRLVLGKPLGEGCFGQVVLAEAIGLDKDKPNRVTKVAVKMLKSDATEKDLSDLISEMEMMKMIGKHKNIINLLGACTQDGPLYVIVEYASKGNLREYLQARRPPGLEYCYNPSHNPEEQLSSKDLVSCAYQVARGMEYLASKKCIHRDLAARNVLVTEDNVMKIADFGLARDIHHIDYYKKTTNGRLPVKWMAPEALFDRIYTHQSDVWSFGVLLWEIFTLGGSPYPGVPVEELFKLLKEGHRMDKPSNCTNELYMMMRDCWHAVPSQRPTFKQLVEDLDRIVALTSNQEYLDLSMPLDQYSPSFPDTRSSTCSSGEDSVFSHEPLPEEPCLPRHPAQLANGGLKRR
Test: as above

First: HFPFQYHRQLF [F12_Y53_YF]
Second: TFGNLYGSRKQ [YIPF7_Y59_A54T_YF]
The phosphorylation enrichment of the first is higher: 0.555 for the first, 0.514 for the second.

Going from EDGRLYAVKRS [PKMYT1_Y136] to GNEEAYGSSHI [FAM171B_Y522_R524S], the phosphorylation enrichment rises from 0.465 to 0.48.

Going from EFGEVYKGMLK [EPHA2_Y628] to RILENYGADID [DNAH5_Y596_L591R], the phosphorylation enrichment rises from 0.439 to 0.765.

Compared with IVKAYYVHARA [AIPL1_Y268_R270H], DGNTRYSTFSE [TKTL1_Y318_D315N] is lower in phosphorylation enrichment: 0.538 for the first, 0.402 for the second.

Going from FTRNFYVQAVL [CYBA_Y88_R90Q_YF] to IPGRFYETGSI [PAX2_Y73_L69P_YF], the phosphorylation enrichment rises from 0.563 to 0.635.

Going from QGLMPYGQPRP [SRRT_Y798] to NNFGNYNNQSS [HNRNPA1_Y318_D314N], the phosphorylation enrichment falls from 0.696 to 0.381.

Compared with IVEELYAIPPD [PEAK1_Y797_S792I], QGFDTYFGFLL [ARSB_Y165_R160Q_YF] is lower in phosphorylation enrichment: 6.62 for the first, 6.18 for the second.

Compared with ESMLRYEVYGG [STOX1_Y607], LTEHGYSFTTT [ACTB_Y198_R196H] is higher in phosphorylation enrichment: 0.528 for the first, 0.961 for the second.

Target: FGFR3 (UniProt P22607)
Sequence (P22607 whole entry, looked up): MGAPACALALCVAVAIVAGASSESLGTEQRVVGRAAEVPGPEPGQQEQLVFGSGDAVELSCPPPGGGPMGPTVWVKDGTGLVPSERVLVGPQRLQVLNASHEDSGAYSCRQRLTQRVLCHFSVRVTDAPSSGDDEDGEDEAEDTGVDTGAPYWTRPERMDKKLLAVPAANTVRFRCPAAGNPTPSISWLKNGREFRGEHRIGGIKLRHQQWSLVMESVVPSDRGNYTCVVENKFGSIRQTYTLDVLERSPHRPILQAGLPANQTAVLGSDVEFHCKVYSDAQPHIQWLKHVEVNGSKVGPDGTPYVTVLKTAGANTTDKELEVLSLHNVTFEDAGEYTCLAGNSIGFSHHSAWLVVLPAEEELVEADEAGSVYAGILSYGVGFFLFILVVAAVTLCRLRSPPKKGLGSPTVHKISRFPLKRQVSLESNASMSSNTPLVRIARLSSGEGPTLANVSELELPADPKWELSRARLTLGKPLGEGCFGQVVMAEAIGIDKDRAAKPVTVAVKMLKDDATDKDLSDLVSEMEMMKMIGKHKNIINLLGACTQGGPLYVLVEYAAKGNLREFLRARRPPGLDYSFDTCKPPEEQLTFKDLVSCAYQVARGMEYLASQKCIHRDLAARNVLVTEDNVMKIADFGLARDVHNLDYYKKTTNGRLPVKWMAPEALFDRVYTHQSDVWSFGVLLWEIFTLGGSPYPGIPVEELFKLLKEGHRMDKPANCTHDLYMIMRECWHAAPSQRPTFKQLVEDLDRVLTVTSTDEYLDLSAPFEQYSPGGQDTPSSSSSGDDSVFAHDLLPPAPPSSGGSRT
Test: as above

Going from HFPFQYHRQLF [F12_Y53_YF] to TFGNLYGSRKQ [YIPF7_Y59_A54T_YF], the phosphorylation enrichment falls from 0.694 to 0.421.

Going from EDGRLYAVKRS [PKMYT1_Y136] to GNEEAYGSSHI [FAM171B_Y522_R524S], the phosphorylation enrichment falls from 0.633 to 0.518.

Going from EFGEVYKGMLK [EPHA2_Y628] to RILENYGADID [DNAH5_Y596_L591R], the phosphorylation enrichment rises from 0.526 to 0.695.

First: IVKAYYVHARA [AIPL1_Y268_R270H]
Second: DGNTRYSTFSE [TKTL1_Y318_D315N]
The phosphorylation enrichment of the first is higher: 0.633 for the first, 0.533 for the second.

Compared with FTRNFYVQAVL [CYBA_Y88_R90Q_YF], IPGRFYETGSI [PAX2_Y73_L69P_YF] is lower in phosphorylation enrichment: 0.795 for the first, 0.614 for the second.

First: QGLMPYGQPRP [SRRT_Y798]
Second: NNFGNYNNQSS [HNRNPA1_Y318_D314N]
The phosphorylation enrichment of the first is lower: 0.527 for the first, 0.708 for the second.

Going from IVEELYAIPPD [PEAK1_Y797_S792I] to QGFDTYFGFLL [ARSB_Y165_R160Q_YF], the phosphorylation enrichment falls from 6.02 to 5.31.

First: ESMLRYEVYGG [STOX1_Y607]
Second: LTEHGYSFTTT [ACTB_Y198_R196H]
The phosphorylation enrichment of the first is lower: 0.702 for the first, 1.09 for the second.

Test system: Fer (mouse)
Test: as above

Compared with HFPFQYHRQLF [F12_Y53_YF], TFGNLYGSRKQ [YIPF7_Y59_A54T_YF] is lower in phosphorylation enrichment: 0.538 for the first, 0.457 for the second.

First: EDGRLYAVKRS [PKMYT1_Y136]
Second: GNEEAYGSSHI [FAM171B_Y522_R524S]
The phosphorylation enrichment of the first is higher: 0.444 for the first, 0.4 for the second.

Compared with EFGEVYKGMLK [EPHA2_Y628], RILENYGADID [DNAH5_Y596_L591R] is lower in phosphorylation enrichment: 0.411 for the first, 0.403 for the second.

Compared with IVKAYYVHARA [AIPL1_Y268_R270H], DGNTRYSTFSE [TKTL1_Y318_D315N] is lower in phosphorylation enrichment: 0.574 for the first, 0.383 for the second.

First: FTRNFYVQAVL [CYBA_Y88_R90Q_YF]
Second: IPGRFYETGSI [PAX2_Y73_L69P_YF]
The phosphorylation enrichment of the first is higher: 0.654 for the first, 0.357 for the second.

First: QGLMPYGQPRP [SRRT_Y798]
Second: NNFGNYNNQSS [HNRNPA1_Y318_D314N]
The phosphorylation enrichment of the first is higher: 0.424 for the first, 0.379 for the second.

Going from IVEELYAIPPD [PEAK1_Y797_S792I] to QGFDTYFGFLL [ARSB_Y165_R160Q_YF], the phosphorylation enrichment rises from 6.14 to 8.02.

Going from ESMLRYEVYGG [STOX1_Y607] to LTEHGYSFTTT [ACTB_Y198_R196H], the phosphorylation enrichment rises from 0.523 to 0.815.

Target: Fes (UniProt P07332)
Sequence (P07332 whole entry, looked up): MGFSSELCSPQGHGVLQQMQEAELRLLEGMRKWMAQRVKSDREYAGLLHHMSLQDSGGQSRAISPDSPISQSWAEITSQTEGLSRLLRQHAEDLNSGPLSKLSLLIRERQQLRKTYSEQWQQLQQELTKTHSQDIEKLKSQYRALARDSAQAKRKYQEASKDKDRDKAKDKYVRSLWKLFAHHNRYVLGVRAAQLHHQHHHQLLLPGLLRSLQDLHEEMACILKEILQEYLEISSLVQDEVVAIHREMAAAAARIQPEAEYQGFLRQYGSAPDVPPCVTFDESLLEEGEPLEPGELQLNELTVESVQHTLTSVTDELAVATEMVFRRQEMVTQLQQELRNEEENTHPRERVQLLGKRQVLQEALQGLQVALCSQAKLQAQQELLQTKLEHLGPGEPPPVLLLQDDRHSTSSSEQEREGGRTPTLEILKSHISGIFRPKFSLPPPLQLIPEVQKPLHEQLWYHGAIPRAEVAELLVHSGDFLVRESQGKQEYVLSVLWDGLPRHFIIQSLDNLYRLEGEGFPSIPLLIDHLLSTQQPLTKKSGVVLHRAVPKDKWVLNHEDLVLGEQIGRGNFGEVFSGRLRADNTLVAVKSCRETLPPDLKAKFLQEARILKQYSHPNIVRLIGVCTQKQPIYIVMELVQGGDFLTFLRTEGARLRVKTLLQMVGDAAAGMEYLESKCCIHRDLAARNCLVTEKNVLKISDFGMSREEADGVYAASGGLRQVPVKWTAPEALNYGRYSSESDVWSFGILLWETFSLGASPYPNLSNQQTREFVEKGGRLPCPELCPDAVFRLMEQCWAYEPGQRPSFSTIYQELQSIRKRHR
Test: as above

Compared with HFPFQYHRQLF [F12_Y53_YF], TFGNLYGSRKQ [YIPF7_Y59_A54T_YF] is higher in phosphorylation enrichment: 0.78 for the first, 0.788 for the second.

First: EDGRLYAVKRS [PKMYT1_Y136]
Second: GNEEAYGSSHI [FAM171B_Y522_R524S]
The phosphorylation enrichment of the first is higher: 0.856 for the first, 0.817 for the second.

First: EFGEVYKGMLK [EPHA2_Y628]
Second: RILENYGADID [DNAH5_Y596_L591R]
The phosphorylation enrichment of the first is lower: 0.579 for the first, 1.06 for the second.

Compared with IVKAYYVHARA [AIPL1_Y268_R270H], DGNTRYSTFSE [TKTL1_Y318_D315N] is lower in phosphorylation enrichment: 0.978 for the first, 0.969 for the second.

Compared with FTRNFYVQAVL [CYBA_Y88_R90Q_YF], IPGRFYETGSI [PAX2_Y73_L69P_YF] is lower in phosphorylation enrichment: 1.31 for the first, 0.723 for the second.

First: QGLMPYGQPRP [SRRT_Y798]
Second: NNFGNYNNQSS [HNRNPA1_Y318_D314N]
The phosphorylation enrichment of the first is higher: 0.863 for the first, 0.632 for the second.

Compared with IVEELYAIPPD [PEAK1_Y797_S792I], QGFDTYFGFLL [ARSB_Y165_R160Q_YF] is higher in phosphorylation enrichment: 1.26 for the first, 2.08 for the second.

Compared with ESMLRYEVYGG [STOX1_Y607], LTEHGYSFTTT [ACTB_Y198_R196H] is higher in phosphorylation enrichment: 1.42 for the first, 1.79 for the second.

Target: Fyn (UniProt P06241)
Sequence (P06241 whole entry, looked up): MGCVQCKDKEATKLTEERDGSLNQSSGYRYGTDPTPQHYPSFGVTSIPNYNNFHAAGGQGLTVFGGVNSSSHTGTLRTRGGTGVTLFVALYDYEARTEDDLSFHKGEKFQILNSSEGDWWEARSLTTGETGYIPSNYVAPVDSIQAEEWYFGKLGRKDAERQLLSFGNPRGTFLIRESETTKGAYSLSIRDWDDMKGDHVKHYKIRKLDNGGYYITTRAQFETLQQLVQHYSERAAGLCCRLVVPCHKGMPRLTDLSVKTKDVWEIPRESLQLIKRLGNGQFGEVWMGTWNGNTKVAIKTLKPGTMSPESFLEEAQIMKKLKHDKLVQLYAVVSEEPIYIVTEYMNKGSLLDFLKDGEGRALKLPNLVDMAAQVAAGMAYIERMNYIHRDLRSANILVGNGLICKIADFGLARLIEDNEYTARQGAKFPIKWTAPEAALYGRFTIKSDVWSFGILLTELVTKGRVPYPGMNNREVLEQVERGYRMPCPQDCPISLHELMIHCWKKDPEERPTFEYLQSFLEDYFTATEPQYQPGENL
Test: as above

Going from HFPFQYHRQLF [F12_Y53_YF] to TFGNLYGSRKQ [YIPF7_Y59_A54T_YF], the phosphorylation enrichment rises from 0.466 to 0.911.

Going from EDGRLYAVKRS [PKMYT1_Y136] to GNEEAYGSSHI [FAM171B_Y522_R524S], the phosphorylation enrichment rises from 0.486 to 0.521.

Compared with EFGEVYKGMLK [EPHA2_Y628], RILENYGADID [DNAH5_Y596_L591R] is higher in phosphorylation enrichment: 0.422 for the first, 0.726 for the second.

Going from IVKAYYVHARA [AIPL1_Y268_R270H] to DGNTRYSTFSE [TKTL1_Y318_D315N], the phosphorylation enrichment falls from 0.424 to 0.319.

First: FTRNFYVQAVL [CYBA_Y88_R90Q_YF]
Second: IPGRFYETGSI [PAX2_Y73_L69P_YF]
The phosphorylation enrichment of the first is lower: 0.435 for the first, 0.492 for the second.

First: QGLMPYGQPRP [SRRT_Y798]
Second: NNFGNYNNQSS [HNRNPA1_Y318_D314N]
The phosphorylation enrichment of the first is higher: 0.488 for the first, 0.382 for the second.

First: IVEELYAIPPD [PEAK1_Y797_S792I]
Second: QGFDTYFGFLL [ARSB_Y165_R160Q_YF]
The phosphorylation enrichment of the first is lower: 3.48 for the first, 11.4 for the second.

Compared with ESMLRYEVYGG [STOX1_Y607], LTEHGYSFTTT [ACTB_Y198_R196H] is higher in phosphorylation enrichment: 0.666 for the first, 0.968 for the second.
